Measurements as given in the DeepSol protein solubility set.

experiment: soluble on expression in E. coli; label from the status in PepcDB or PDB records

Row | Sequence | soluble on expression in E. coli
1 | MDSHCRVRPAGPAVPADCDPPRITHAALAARLGDARLLTLYDQATWSEGPAWWEAQRTLVWSDLVGRRVLGWREDGTVDVLLDATAFTNGNAVDAQQRLVHCEHGRRAITRSDADGQAHLLVGRYAGKRLNSPNDLIVARDGAIWFTDPPFGLRKPSQGCPADPELAHHSVYRLPPDGSPLQRMADLDHPNGLAFSPDEQTLYVSQTPEQGHGSVEITAFAWRDGALHDRRHFASVPDGLPDGFCVDRGGWLWSSSGTGVCVFDSDGQLLGHIPTPGTASNCTFDQAQQRLFITGGPCLWMLPLP | soluble
2 | MGYLKNHWWKRWIRRRGCKLAGGPASVGKRTTLVLEERVELGHLRIVPPRLEIGAYSYVRSGTDLSLVASIGRFCSIGSDCFIGQEKHTHPSDWVSSHPFQHTGTALRYEPALSYAEIGHDVWIGHSAMVMEGVKVGTGAIIATRAVVTRDVPPYAIVAGTPAQVIRYRHPPEIIEGLLASRWWELDSAFLTGLPLDRPREFLAALEAREAPRAAYRRMTITRQGCRLD | not soluble
3 | MGSDKIHHHHHHCQNHVETMSITNNDAYLLQQTALSSSLGYDIVESLTVEVGPRLAGSPKDIIAVNWAMDKLTHLGFDRVYKEPVQVPIWERGEAKAKITFPVEQPLVITALGGSVATPTTGIQAKIIRFDSLEALKQANPEDVKGRIAFIDQKTERHITGEGYGKSVGGRSKGAVAAAEKGAVAIIIRSIGTDHDRMAHTGVMRYQDGVPKIPAAAMSNPDADLVTAMLRRDPNAILELQMSPKNSGFNTSYNVIAEVTGSSKPNEIVLIGAHLDSWDEGTGAIDDGAGVAIVTAAAKHIQDLPIKPARTVRVVLYAAEEIGLMGGKAYAEAHKAELPLHYIAAESDFGAGRIYQIDTKVNEGVFTKVQNILKPMTLNGVTLGSNQASAGPDISMLPAQGVPVASLRQDGRDYFDYHHTPNDTLDKIDPAALAQNVAAYAQFAYLMANSNIVLTPLASEIK | not soluble
4 | GMTRPAHPISRYPVPELAALPDDIRQRILEVQDKAGFVPNVFLTLAHRPDEFRAFFAYHDALMLKDGGLTKGEREMIVVATSAANQCLYCVVAHGAILRIYEKKPLVADQVAVNYLKADIPPRQRAMLDFALKVCKASHEVNEADFEALREHGFTDEDAWDIAAITAFFGLSNRMANTIGMRPNDEFFLMGRVPKSK | soluble
5 | MQRKLKVTSLEPGTVVITEQAVDTCFKAEFEQIVLGKRVIRKTDLNKKLVQELLLCSAELSEFTTVVGNTMCTLDFYEGQGRLDGALCSYTEKDKQAYLEAAYAAGVRNIEMESSVFAAMCSACGLQAAVVCVTLLNRLEGDQISSPRNVLSEYQQRPQRLVSYFIKKKLSKA | not soluble
6 | MLAVSSAIVSSAMYILSFPGQASGITKEQVTKHMKKESFKQADIYYTSKEKSLLPLTKETLEYAVSINQIMIGYSNQKPIDIIFFLMKNRWRLTPVYWMLEHHHHHH | not soluble
7 | MVWFFEYYDGCGLAIKVKKKLYEAEGVQKVEIYETESMGKMLVIDGKIQLTELDEPFYHEMLVHVPMLSHENPRKVAVIGGGDGGALREVLKHNVERAVLVDIDRNVIDLSRKFLKIDHGAFEDERVEIAIMDGKEFLRDCEIFDVIIVDSTDPVGVSDTLFDREFFELARQKCDVISLQSQSPLIQKEYFRTLLVNSAPFERRDVYLSCVPTYPLALWSFIIGGEYDFSNLEERFERIKGKTVHYNPDVHRAAFALPEWLKKEVEACILEHHHHHH | soluble
8 | LSLLLEVSGNPKAGNVDREHDFDDLKFEHFLASAAGAFPAFLEVAEKRIIGEGVLRAVKESMRWHRAENVHFGAFLLLVPLISSWDAGGMVDIAEAARNRLRRTDFRDSLSVLEAFRLSNARVVEAGELNLKDRKTEEEIAQKKINLYEWMKMAPEENLIARELVDGFKISIEGAKFLLSFGNSGKAVVELYYHLLSKFPDPLVIAKMGREYAEKITEWAEKARTEEERKELDEKLLKDGANPGTIADLTASSI | not soluble
9 | MKKDLSALKEARFNAILDSATILLVENPTASMNEIAEYAGIGIATLHRYVESREKLMLFLGHRAIQLVSDTVNQIPLDEERSENYIPELIEALIPLGDKIYFLGHDASVFNNKELGEAEEKLREPLRRVIELLQQRGYFQQTVSSEWILNTLYALLFHTWEQVHEGNVAKKSAAELVLNTFYYGFKAKDELRGK | not soluble
10 | MIKYSIRGENIEVTEAIREYVETKLSKVEKYFNEAQELDTRVNLKVYREKTAKVEVTILIDSITLRAEDVSQDMYGSIDLVVDKIERQIRKNKTKIAKKYREKIPASQVFTTEFEAEPDEEAVSQRIVRTKNVNLKPMDVEEALLQMELLGHDFFIYTDAEDNTTNVLYKREDGELGLIEAKGNLEHHHHHH | soluble
11 | MGSDKIHHHHHHMNDFIKFTGPADVLAFIPHTLGQTPTESFVALTMQGNKIGATLRVDAPFGQDPVGYAQTIVSYLTADEAATGSLLVIYTDESTTDGSSPYAGHVQALSTELETAGMPLQDAWLVTSELWRNYHCTDTGCCPDQPLDAITTSNGNAALIYRGSAVTGFIAPAPFTGDETAREAITARKPDGWPEDLEASRAAWARVLKDPKSLTTETAYQLAGALQHPTIRDYMMGDIVPHAPEQFTSVMLGVFPTRPDWARVDTAQEVAFELMKATPEGQRAPMLCLIGWLEWLKGQSSFAARYFKLALEDTAGYRLAELLDELVNRGLLADCSRDRKKAYDRRLKR | not soluble
12 | MSLRILLALASLSGNTREVARVIRARCEERGHRVDWIETDLQTLAGQALDPHTYTLFLLGTWTDNAGRTPFEMKRFIVELLELIGKPPSVAVFGTGETQWGQEYYCGAVHRISDFFASRFPRLLIEQMPHGERDALAIVEWTDQVLDQCNKDSDADHYRYVAEGHHHHHH | soluble
13 | MGSDKIHHHHHHMSTNISWTDETINPIVGCSRISAGCQNCYASTAAASARLQQFPQYQKVKDWNGTVEFAESALLKPLSWKKPKRIFVCSMSDLFHENVPDQWRDRVFGIMAAAHWHIFQVLTKRPLNALKYFQNFNLAQRIKDAGNLVCKPELPLKNVWFGVTCENQEMADKRIPILLQIPAKVRFLSCEPLLEEIDLSEVFGLYEYEEGKFALKVGSRWESSPDWVIVGGESGKDARVCHIDWVRSLTRQCQAAEVPVFVKQLGSNCIESLPYIAGVPSTDYQFKTSDRKGGDISEFPEDLQVRKFPDIHKTR | not soluble
14 | MILAIFSLRLLLIPTIDEPESIVTQLENAIDPVTQVPDFSAITDVAEKKRAFFDFLRPIVQQQNAIIASEREFITDMLAIVENGNALSDSQSAQLNQIFDKYLYAARNVDAKSLNSLLKRVDIIPESMVLIQAANESGWGSSRFAREGFNFFGEWCFSNGCGIVPSSRGSGKTHEVKIFPSVDASVSSYMRNLNSNTAYNLFRSIRADLRAQEAELNADQLIYGLVNYSERQEAYIDELLDMLRHNAKYLVKADV | soluble
15 | MKEKIPFYNEKEFNEMMKKTKKGTFSGWYIINPENNSVEFSGSFNRQFKLNKPIIPVNTEYVTRKEFNEYKDSNDQRLIKIETTLTAQGEQINKLTQTVEKQGEQIRELQVEQKAQGEQIKAQGETLKLILQTLQKMSDRLDKIDPPKLEHHHHHH | not soluble
16 | MSVKKKTQVRTGKMVRELMLADEDVNASLIMVYSENGVNAEIKIEGLTPKCNEELFLSGNVDWNKSVIYKIVDFTGNAEVGKVTLTAMNKNNVSLEIERVMWSKENKEAAEQEETQVEAAPKKEVVVEAPKAITPAPKPVTRVETPAMAPKPTPVPTPKPVSVEAAVELVTPAPVKKAVPTPVTKQETAPVAPAKPKQPALTETNSKLQENYVKLVKKTIEVCQDYELGIDIDDSIESLKEELQSQGISVTFDKEIMDVVNRLRSLQDKGIKVEKVLNLL | not soluble
17 | MKNICFINGSPRSKKANSTLYLNLIDKSLDSKNYTKYYIDTTSSIKGDLESTFKTLLDADYIILAFPLYVYSMPSLLVRFLEDYYIYLKNKDTISQKTNLYAVVNCGFPDAKMNVEALKIVFNCCKKLNINFRFGIGIGAGEFVNFSKNNPLLNKLSSCVYKSINKITYDIENQVSIEINNIFVNPKIPRRLFFIFGHIFWKKWAKRNGIKISALFDKPLEHHHHHH | not soluble
18 | MAHHHHHHMAQRVHYRRHNHYNTKSNKVRPVRTPGGKLTIHVVKKKAGKPKCADCKTAIQGVKALRPADNYRARRKNRTVARAYGGSICARCIRERIMRAFLFEEQKCVRQVLKEKKKQEKKVKKVKKEKKKVNAKEVKKTATDNKKAKKVADKKKGK | not soluble
19 | MALMNILPFARFLLDQAVNEGDIAVDATVGNGHDTVYLAERVGDFGHVFGFDIQPEAITAASARLAEHGLCGRATLFERSHSELLEALPADVHGRIAGAVFNLGYLPGGNKQIVTQPESTIEAVRQLLSVMKPGGVIVLVVYHGHPEGKRERDALLDYVRSLDQRRVHALKYEFINRQNNPPFLIALENRADGGA | not soluble
20 | MSEKRVQPLARDAMAYVLAGGRGSRLKELTDRRAKPAVYFGGKARIIDFALSNALNSGIRRIGVATQYKAHSLIRHLQRGWDFFRPERNESFDILPASQRVSETQWYEGTADAVYQNIDIIEPYAPEYMVILAGDHIYKMDYEYMLQQHVDSGADVTIGCLEVPRMEATGFGVMHVNEKDEIIDFIEKPADPPGIPGNEGFALASMGIYVFHTKFLMEAVRRDAADPTSSRDFGKDIIPYIVEHGKAVAHRFADSCVRSDFEHEPYWRDVGTIDAYWQANIDLTDVVPDLDIYDKSWPIWTYAEITPPAKFVHDDEDRRGSAVSSVVSGDCIISGAALNRSLLFTGVRANSYSRLENAVVLPSVKIGRHAQLSNVVIDHGVVIPEGLIVGEDPELDAKRFRRTESGICLITQSMIDKLDL | soluble
21 | MGSDKIHHHHHHMNSFLDSVCALLEQGEDVVIVTIAMQSGSTPRESGAKMAVRRDGSILGTVGGGLMEAGCMELGREMLTGRFASSAAESGPELAVIRHFDLSNEEAAKAAMVCGGRLTVVAEHIQAGRRGAEVLCAARDSLLQGKACGLETTMERLEHTAAATREACFAVTGRKTPDCGHAAPAAASATLDCDGKTCRFTEWLQPSPRMIIFGAGHVALPTAAMASMTGFAVTVLDDREEFASPQRFPQARTVVLPDFGQAFAQLTITPQCYVVIMTRGHLHDKTVLEQALKTPACYVGMIGSRRKRDALYDQLRSEGVDESSIARCHCPIGLEIGARTPEEIAVSIMAEIIACRAAGNGDGAS | not soluble
22 | MRGKAWMLTAVALTGLGLAQIRADGSSTVYPITQAVAEEFVTRNPQVRISVAFSGTGAGFQKFCRGETDVQNASRPIRKSELEACQKAGIQFIEIPVAYDALSILVNRQNTWAQCLTTAQLKSIWEPNAKVNYWKDLNPAWPNRRIVLFGAGTDSGTFDYFTEAIMGRAGSIRKDYFPSEDDNVIMRGVTGNPYAMAFVGFAYYEENKDKVKAVAIDHGKGCVLPSRETVLDGTYQPLSRPLFIYVNVKSLDRPEVQAFVDFYLSPAARRAIRSTGYVELPDEAYRIGQGLVARKKTGSFFTDLPPGTPLAKFIEELRKEVQ | soluble
23 | MGRTSKDKRDVYYRLAKENGWRARSAFKLLQLDKEFQLFQGVTRAVDLCAAPGSWSQVLSQKIGGQGSGHVVAVDLQAMAPLPGVVQIQGDITQLSTAKEIIQHFKGCPADLVVCDGAPDVTGLHDVDEYMQAQLLLAALNIATHVLKPGGCFVAKIFRGRDVTLLYSQLQVFFSSVLCAKPRSSRNSSIEAFAVCQGYDPPEGFIPDLSKPLLDHSYDPDFNQLDGPTRIIVPFVTCGDLSSYDSDRSYPLDLEGGSEYKYTPPTQPPISPPYQEACTLKRKGQLAKEIRPQDCPISRVDTFPQPLAAPQCHTLLAPEMEDNEMSCSP | soluble
